First the molecules themselves.
B1: Wnt inhibitory factor 1 (Homo sapiens), Q9Y5W5 (parent)
chain: MARRSAFPAAALWLWSILLCLLALRAEAGPPQEESLYLWIDAHQARVLIGFEEDILIVSEGKMAPFTHDFRKAQQRMPAIPVNIHSMNFTWQAAGQAEYFYEFLSLRSLDKGIMADPTVNVPLLGTVPHKASVVQVGFPCLGKQDGVAAFEVDVIVMNSEGNTILQTPQNAIFFKTCQQAECPGGCRNGGFCNERRICECPDGFHGPHCEKALCTPRCMNGGLCVTPGFCICPPGFYGVNCDKANCSTTCFNGGTCFYPGKCICPPGLEGEQCEISKCPQPCRNGGKCIGKSKCKCSKGYQGDLCSKPVCEPGCGAHGTCHEPNKCQCQEGWHGRHCNKRYEASLIHALRPAGAQLRQHTPSLKKAEERRDPPESNYIW
partner: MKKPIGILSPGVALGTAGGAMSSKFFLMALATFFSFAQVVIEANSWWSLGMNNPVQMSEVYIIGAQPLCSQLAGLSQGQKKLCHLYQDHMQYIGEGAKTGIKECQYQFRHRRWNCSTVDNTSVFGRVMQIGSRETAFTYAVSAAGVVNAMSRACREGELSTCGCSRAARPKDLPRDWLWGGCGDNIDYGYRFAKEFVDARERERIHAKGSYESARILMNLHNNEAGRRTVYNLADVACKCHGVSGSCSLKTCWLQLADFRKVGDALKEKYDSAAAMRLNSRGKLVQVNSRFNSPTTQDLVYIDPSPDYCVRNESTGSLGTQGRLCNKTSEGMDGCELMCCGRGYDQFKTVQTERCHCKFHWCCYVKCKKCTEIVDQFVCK
B2: Wnt inhibitory factor 1 (Homo sapiens), Q9Y5W5 (parent)
chain: B1 chain

Variants of B1 are the subject of one test. The note with it: with wnt5a_mouse Wnt5a.
In the case of W15R, the “effect of a mutation on the interaction” value is “increasing interaction”.

Variants of B2 are the subject of a further test. The note with it: with wnt3a_mouse Wnt3a.
As for W15R, the “effect of a mutation on the interaction” value is “decreasing interaction”.

These data come from IntAct's records for PubMed 22986341.
